Broadly, the Kd is the free concentration of one partner at which half of the binding sites on the other are occupied at equilibrium, for simple one-to-one binding. A word on the koff: it is the rate constant with which the complex falls apart. A word on the kon: it is the second-order rate constant of association.

The target of the assay is T1, human PD-1-his (recombinant human PD-1 extracellular domain with C-terminal polyhistidine tag) (human, UniProt Q15116 25-170).
T1 construct: extracellular domain; also called 人PD-1-his; hPD-1蛋白
As to the kind of experiment: SPR (Biacore 8K), antibody captured, antigen injected.

T1 sequence (Q15116 25-170): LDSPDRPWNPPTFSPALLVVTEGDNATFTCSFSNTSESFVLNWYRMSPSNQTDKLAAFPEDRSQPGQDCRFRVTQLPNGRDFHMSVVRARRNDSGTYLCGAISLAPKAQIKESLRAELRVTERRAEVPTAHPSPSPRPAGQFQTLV

B1: murine anti-PD-1 antibody 56B3C11 (antibody, V domains shown)
VH: EVMLVESGGGLVQPGGSLKLSCAASGFTFNSYTMSWVRQTPEKRLEWVAYISFGGGDTYYPDTVKGRFTISRDNAKNTLYLQMNSLKSEDTAMYYCARQGNYEGAPFAYWGQGTLVTVSA
VL: DIQMTQTTSSLSASLGDRVTISCRASQDISNFLNWYQLKPDGTIKLLIYYTSRLHSGVPSRFSGSGSGTDYSLTITDLEQEDIATYLCQQGDMIPWTFGGGTKLEIK
In the case of B1, the dissociation constant (Kd) came out at 2.43 nM, the koff came to 0.000295 s⁻¹ and the kon is 122000 M⁻¹ s⁻¹.

B2: murine anti-PD-1 antibody 31G1E10 (antibody, V domains shown)
VH: EVKLVESGGGLVKPGGSLKLSCAASGFTFSSYGMSWVRQTPEKRLEWVATISGGGRDTYYPDSVKGRFTISRDNAKNNLYLQMNNLRSEDTALYYCARQRDSAWFAHWGQGTRVTVSA
VL: not shown
Turning to B2, the dissociation constant (Kd) was 1.16 nM, the koff was found to be 0.000198 s⁻¹ and the kon worked out at 171000 M⁻¹ s⁻¹.

These data come from patent CN111253486A (ZAI LAB SHANGHAI CO LTD, dated 2020).
